We go through ten molecules from patent US20230295305A1 (GRITSTONE BIO, published 2023).

Test [1] deals with T1, HLA-A*02:01 / … complex (HLA-PEPTIDE target G8) on cells (human).
T1 construct: whole, on cells; also called target pHLA; pHLA 10mer
Description: flow cytometry, Format 41 bispecific on A375 cells expressing ~300,000 copies of the pHLA 10mer.

In test [2] the target is T1, HLA-A*02:01 / … complex (HLA-PEPTIDE …). The test is described as follows: cell-based or functional assay.
Test [3] deals with T2, CD3 on CD3+ Jurkat cells.
T2 construct: whole, on cells
T2 sequence (P07766 23-207): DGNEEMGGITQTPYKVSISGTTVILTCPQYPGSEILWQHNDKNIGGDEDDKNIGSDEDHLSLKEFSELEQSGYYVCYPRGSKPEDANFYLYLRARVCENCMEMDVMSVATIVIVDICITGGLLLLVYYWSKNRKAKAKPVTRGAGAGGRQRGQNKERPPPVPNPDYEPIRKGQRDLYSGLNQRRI
The test is described as follows: flow cytometry, Format 41 bispecific on CD3+ Jurkat cells. A general note: Flow cytometry measures light scatter and fluorescence of single cells or particles in a stream.

Test [4] deals with T3, biotinylated pHLA: HLA subtype A*02:01 complexed with … (HLA-PEPTIDE target G8) (human).
T3 construct: Soluble biotinylated pHLA coupled to U-PLEX linker 1 in the MSD assay; also called pHLA target
Description: MSD specificity ratio; threshold for selection of the 12 hit clones of Table 14. The method, then: G8 scFv screening was conducted using the Meso Scale Discovery U-PLEX Development Pack, 9-assay (cat. No. K15234N). The pack contains a 10-spot U-PLEX plate with 9 activated spots and 9 unique linkers as well as stop solution and read buffer. Biotinylated pHLA and biotinylated Protein L were each diluted to 33 nM using PBS+0.5% BSA. For each plate, 200 μL of the diluted pHLA or protein L was mixed with 300 μL of the corresponding Linker (see Table 9) and incubated at room temperature for 30 minutes.
Following the 30-minute incubation, 200 μL stop solution was added to each linker-pHLA solution. They were again incubated for 30 minutes at room temperature. These volumes were scaled based on the number of plates. The linker-pHLA solutions were then a 10× solution. They were then pooled together and further diluted with stop solution to the final 1× concentration. For example, for one plate with one linker, 600 μL pHLA would be diluted with 5.4 mL stop solution for the 1× concentration with a total volume of 6 mL. For one plate using 8 linkers, 600 μL of each linker was pooled to give 4.8 mL volume and 1.2 mL additional stop solution added for the final 6 mL volume. All volumes were scaled for additional plates. The pooled linker-pHLA solution was then coated onto the 10-spot plate as 50 μL/well, the plate sealed and stored at 4° C. overnight.
Samples, periplasmic extracts (PPE) were diluted 40-fold with PBS+1% BSA. The plate was washed 3 times with PBS+0.05% Tween and samples added as 50 μL/well. Plates were incubated at room temperature shaking for 2 hours. The plates were washed as before and 50 μL of 1 μg/mL SulfoTag anti-Myc tag (Abcam, ab206486) was added to each well. The anti-Myc tag antibody was sulfo-tag labeled using the MSD Gold Sulfo-tag NHS-Ester Conjugation kit (Meso Scale Discovery, R31AA-2) at a challenge ratio of 10. The plates were incubated for 1 hour shaking at room temperature. The plate wash was repeated and 150 μL 2× Read Buffer T (Meso Scale Discovery, R92TC-2) was added to all wells and the plate read immediately on the Quickplex SQ 120.

B1: 5G06NT Format 41 diabody bispecific antibody (anti-G8 x anti-CD3) (bispecific antibody, V domains shown)
VH: EVQLLESGGGLVQPGGSLRLSCAASGFTFSDYYMSWVRQAPGKGLEWVSGINWPGGSTGYADSVKGRFTISRDNSKNTLYLQMNSLRAEDTAVYYCARVEQGYDIYYFYYMDVWGKGTTVTVSS
VL: DIQMTQSPSSLSASVGDRVTITCRASQSISSYLNWYQQKPGKAPKLLIYKASSLESGVPSRFSGSGSGTDFTLTISSLQPEDFATYYCQQSYSAPYTFGPGTKVDIK
As usually defined, the EC50 is the midpoint of the concentration-response curve. Turning to B1, the EC50 in test [1] was 0.11 nM; in test [3], 41 nM. The “EC 50 (nM), cytotoxicity of A375 FoxE1 cells” value in test [2] turned out to be 0.08 nM.

B2: 1B03 (G8-1B03, Parent A) Format 41 diabody bispecific antibody (anti-G8 x anti-CD3) (bispecific antibody, V domains shown)
VH: EVQLLESGGGLVQPGGSLRLSCAASGFTFSDYYMSWVRQAPGKGLEWVSGINWNGGSTGYADSVKGRFTISRDNSKNTLYLQMNSLRAEDTAVYYCARVEQGYDIYYYYYMDVWGKGTTVTVSS
VL: DIQMTQSPSSLSASVGDRVTITCRASQSISSYLNWYQQKPGKAPKLLIYKASSLESGVPSRFSGSGSGTDFTLTISSLQPEDFATYYCQQSYSAPYTFGPGTKVDIK
Take B2: the EC50 was 72.8 nM in test [1] and 161 nM in test [3].

B3: 05C04 scFv (scFv, V domains shown)
VH: EVQLLESGGGLVQPGGSLRLSCAASGYTFSDYYMSWVRQAPGKGLEWVSGINWPGGYTGYADSVKGRFTISRDNSKNTLYLQMNSLRAEDTAVYYCARVEQGYDIYYYYYMDVWGKGTTVTVSS
VL: DIQMTQSPSSLSASVGDRVTITCRASQSISSYLNWYQQKPGKAPKLLIYKASSLESGVPSRFSGSGSGTDFTLTISSLQPEDFATYYCQQSYSAPYTFGPGTKVDIK
notes: As m4: periplasmic-extract scFv
In the case of B3, the target/OTLA specificity in test [4] is > 50 ratio.

B4: 05G09 scFv (scFv, V domains shown)
VH: EVQLLESGGGLVQPGGSLRLSCAASGFTFSDYYMSWVRQAPGKGLEWVGGINWPGGSTDYADSVKGRFTISRDNSKNTLYLQMNSLRAEDTAVYYCARVEQGYDIYYYYYMDVWGKGTTVTVSS
VL: DIQMTQSPSSLSASVGDRVTITCRASQSISSYLNWYQQKPGKAPKLLIYKASSLESGVPSRFSGSGSGTDFTLTISSLQPEDFATYYCQQSYSAPYTFGPGTKVDIK
notes: As m4; also called 0509
For B4, the target/OTLA specificity in test [4] was > 50 ratio.

B5: 09D01 scFv (scFv, V domains shown)
VH: EVQLLESGGGLVQPGGSLRLSCAASGFTFSDYYMSWVRQAPGKGLEWVSGINWHHGSTGYADSVKGRFTISRDNSKNTLYLQMNSLRAEDTAVYYCARVEQGYDIYYYYYMDVWGKGTTVTVSS
VL: DIQMTQSPSSLSASVGDRVTITCRASQSISSYLNWYQQKPGKAPKLLIYKASSLESGVPSRFSGSGSGTDFTLTISSLQPEDFATYYCQQSYSAPYTFGPGTKVDIK
notes: as for B3
Regarding B5, the target/OTLA specificity in test [4] is > 50 ratio.

B6: 09D06 scFv (scFv, V domains shown)
VH: EVQLLESGGGLVQPGGSLRLSCAASGFTFSDYYMSWVRQAPGKGLEWVSGINWPGSSTGYADSVKGRFTISRDNSKNTLYLQMNSLRAEDTAVYYCARVRQGYDYYYYYYMDVWGKGTTVTVSS
VL: DIQMTQSPSSLSASVGDRVTITCRASQSISSYLNWYQQKPGKAPKLLIYKASSLESGVPSRFSGSGSGTDFTLTISSLQPEDFATYYCQQSYSAPYTFGPGTKVDIK
notes: as for B3
Consider B6, for which the target/OTLA specificity in test [4] is > 50 ratio.

B7: 05A03 scFv (scFv, V domains shown)
VH: EVQLLESGGGLVQPGGSLRLSCAASGYTFSDYYMSWVRQAPGKGLEWVSGINWPGGSTGYADSVKGRFTISRDNSKNTLYLQMNSLRAEDTAVYYCARVEQGYDIYYYYYMDVWGKGTTVTVSS
VL: DIQMTQSPSSLSASVGDRVTITCRASQSISSYLNWYQQKPGKAPKLLIYKASSLESGVPSRFSGSGSGTDFTLTISSLQPEDFATYYCQQSYSAPYTFGPGTKVDIK
notes: as for B3
With B7, in test [4], the target/OTLA specificity is > 50 ratio.

B8: 05A08 scFv (scFv, V domains shown)
VH: EVQLLESGGGLVQPGGSLRLSCAASGYTFSDYYMSWVRQAPGKGLEWVGNINWNGGSTLYADSVKGRFTISRDNSKNTLYLQMNSLRAEDTAVYYCARVEQGYDNYYYYYMDVWGKGTTVTVSS
VL: DIQMTQSPSSLSASVGDRVTITCRASQSISSYLNWYQQKPGKAPKLLIYKASSLESGVPSRFSGSGSGTDFTLTISSLQPEDFATYYCQQSYSAPYTFGPGTKVDIK
notes: as for B3
As to B8, in test [4], the target/OTLA specificity was > 50 ratio.

B9: 09G01 scFv (scFv, V domains shown)
VH: EVQLLESGGGLVQPGGSLRLSCAASGFTFSDYYMSWVRQAPGKGLEWVSVINWPGSSTGYADSVKGRFTISRDNSKNTLYLQMNSLRAEDTAVYYCARVEQGYDIYYYYYMDVWGKGTTVTVSS
VL: DIQMTQSPSSLSASVGDRVTITCRASQSISSYLNWYQQKPGKAPKLLIYKASSLESGVPSRFSGSGSGTDFTLTISSLQPEDFATYYCQQSYSAPYTFGPGTKVDIK
notes: as for B3
As for B9, the target/OTLA specificity in test [4] is > 50 ratio.

B10: 05G06 scFv (scFv, V domains shown)
VH: EVQLLESGGGLVQPGGSLRLSCAASGFTFSDYYMSWVRQAPGKGLEWVSGINWPGGSTGYADSVKGRFNISRDNSKNTLYLQMNSLRAEDTAVYYCARVEQGYDIYYFYYMDVWGKGTTVTVSS
VL: DIQMTQSPSSLSASVGDRVTITCRASQSISSYLNWYQQKPGKAPKLLIYKASSLESGVPSRFSGSGSGTDFTLTISSLQPEDFATYYCQQSYSAPYTFGPGTKVDIK
notes: As m4: periplasmic-extract scFv; also called 04A11
As to B10, the target/OTLA specificity in test [4] is > 50 ratio.
